Data on 3 molecules can be found in US20260265372A1 (TECHNION RESEARCH AND DEVELOPMENT FOUNDATION, published 2026).

One assay has as its target T1, D2 domain of human LAG-3 (human, UniProt P18627 169-260).
T1 sequence: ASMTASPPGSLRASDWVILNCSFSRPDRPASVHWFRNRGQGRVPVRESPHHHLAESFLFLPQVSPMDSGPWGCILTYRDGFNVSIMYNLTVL
Description: not described.

Assay [1] concerns the target HA glycoprotein of A/Puerto Rico/8/1934 (H1N1) influenza virus, purified (influenza virus A/Puerto Rico/8/1934 …, UniProt P03452 18-528). Description: ELISA, plate coated with the fusion protein.

B1: 23DKTYB19 (antibody, V domains shown)
VH: QVQLKQSDAELVKPGASVKISCKVSGYTFTDHTIHWMKQRPEQGLEWIGYIYPRDGSTKYNEKFKGKATLTADKSSSTAYMQLNSLTSEDSAVCFCARTGSYAMDYWGQGTSVTVSS
VL: DIVMTQSPASLAVSLGQRATISCKASQSVDYDGDSYMNWYQQKPGQPPKLLIYAASNLESGIPARFSGSGSGTDFTLNIHPVEEEDAATYYCQQSNEDPYTFGG
B1: the binding result with D2 domain of human LAG-3 is “binds”.

B2: 23DKTYB4 (antibody, V domains shown)
VH: QVQLKQSDDELVKPGASVKISCKVSGYTFTDHTIHWMKQRPEQGLEWIGYIYPRDGSTKYNEKFKGKATLTADKSSSTAYMQLNSLTSEDSAVYFCARRRSYYGSSFYFDVWGTGTTVSV
VL: DIQMTQSTSSLSASLGDRVTISCRASQDISNYLNWYQQKPDGTVKLLIYYTSRLHSGVPSRFSGSGSGTDYSLTISNLEQEDIATYFCQQGNTLPWTFGGGTK
B2: the binding result in the assay with D2 domain of human LAG-3 is on record as “binds”.

B3: KIR2DL1 fused to the IgG1 Fc domain (Fc fusion)
chain: HEGVHRKPSLLAHPGRLVKSEETVILQCWSDVMFEHFLLHREGMFNDTLRLIGEHHDGVSKANFSISRMTQDLAGTYRCYGSVTHSPYQVSAPSDPLDIVIIGLYEKPSLSAQLGPTVLAGENVTLSCSSRSSYDMYHLSREGEAHERRLPAGPKVNGTFQADFPLGPATHGGTYRCFGSFHDSPYEWSKSSDPLLVSVTGNPSNSWPSPTEPSSKTGNPRHLH
For the molecule B3, in assay [1], the binding result is recorded as “no binding”.
